Experimental data as given in patent publication US20180291096A1 (Janssen / Centocor, published 2018).

T1: mIL-12 (Disulfide-linked, glycosylated heterodimer; the letters do not carry this.)
T1 construct: also called murine IL-12; copies: 1 + 1
T1 alpha: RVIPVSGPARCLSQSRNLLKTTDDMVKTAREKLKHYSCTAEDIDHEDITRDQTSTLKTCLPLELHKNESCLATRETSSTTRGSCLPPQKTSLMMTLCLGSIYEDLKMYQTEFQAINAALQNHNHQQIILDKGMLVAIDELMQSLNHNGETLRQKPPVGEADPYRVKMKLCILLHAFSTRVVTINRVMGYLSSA
T1 beta: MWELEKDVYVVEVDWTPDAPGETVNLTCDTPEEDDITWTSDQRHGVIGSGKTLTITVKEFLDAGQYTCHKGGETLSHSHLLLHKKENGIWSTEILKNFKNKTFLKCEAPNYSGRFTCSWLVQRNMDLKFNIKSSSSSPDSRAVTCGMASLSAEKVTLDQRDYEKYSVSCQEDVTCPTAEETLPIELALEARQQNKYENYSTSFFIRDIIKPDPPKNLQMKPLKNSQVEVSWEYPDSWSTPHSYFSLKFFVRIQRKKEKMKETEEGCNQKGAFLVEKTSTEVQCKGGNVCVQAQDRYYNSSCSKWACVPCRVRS

T2: murine IL-23 (murine, UniProt Q9EQ14 22-196; P43432 23-335)
T2 sequence (looked up) 1: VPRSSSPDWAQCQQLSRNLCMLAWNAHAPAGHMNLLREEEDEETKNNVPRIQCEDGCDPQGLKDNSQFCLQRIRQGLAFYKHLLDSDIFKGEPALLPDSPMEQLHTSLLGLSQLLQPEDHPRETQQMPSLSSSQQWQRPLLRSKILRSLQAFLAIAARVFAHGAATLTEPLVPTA
T2 sequence (looked up) 2: T1 beta

T3: recombinant human IL-12 (hrIL-12), produced at Centocor (human, UniProt P29459 23-219; P29460 23-328)
T3 construct: also called IL-12 CNTO
T3 sequence (looked up) 1: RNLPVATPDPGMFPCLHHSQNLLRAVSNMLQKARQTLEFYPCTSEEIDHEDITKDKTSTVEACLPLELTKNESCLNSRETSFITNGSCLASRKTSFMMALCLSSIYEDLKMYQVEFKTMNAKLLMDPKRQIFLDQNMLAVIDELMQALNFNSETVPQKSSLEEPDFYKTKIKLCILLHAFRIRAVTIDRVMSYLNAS
T3 sequence (looked up) 2: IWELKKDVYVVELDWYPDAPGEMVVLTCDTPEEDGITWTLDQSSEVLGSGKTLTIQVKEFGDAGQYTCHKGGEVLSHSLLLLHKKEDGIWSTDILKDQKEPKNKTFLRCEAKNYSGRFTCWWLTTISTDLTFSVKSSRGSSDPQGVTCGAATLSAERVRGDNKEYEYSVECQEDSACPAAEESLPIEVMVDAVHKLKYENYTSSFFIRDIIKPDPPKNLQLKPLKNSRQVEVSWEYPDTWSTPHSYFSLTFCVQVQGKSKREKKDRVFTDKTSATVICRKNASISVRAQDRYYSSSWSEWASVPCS

T4: p40 subunit of hrIL-12 (hrp40 monomer) (human, UniProt P29460 23-328)
T4 construct: also called p40 R&D
T4 sequence (looked up): T3 sequence (looked up) 2

T5: murine p40 (murine, UniProt P43432 23-335)
T5 sequence (looked up): T1 beta

B1: MOR04083 mAb (antibody, human IgG1, V domains shown)
VH: QVELVQSGAEVKKPGSSVKVSCKASGGTFSNYAISWVRQAPGQGLEWMGGIIPMFGYANYAQKFQGRVTITADESTSTAYMELSSLRSEDTAVYYCARDIYAGMDVWGQGTLVTVSS
VL: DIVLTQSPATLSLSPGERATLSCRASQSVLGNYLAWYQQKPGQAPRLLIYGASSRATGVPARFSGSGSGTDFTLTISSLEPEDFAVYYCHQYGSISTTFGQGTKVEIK
notes: human IgG1/kappa; also called 4083 (κ)
B2: human IL-23R-Fc fusion protein (Fc fusion, UniProt Q5VWK5 24-355, looked up, not shown: a dimerising Fc or GST)
chain: GITNINCSGHIWVEPATIFKMGMNISIYCQAAIKNCQPRKLHFYKNGIKERFQITRINKTTARLWYKNFLEPHASMYCTAECPKHFQETLICGKDISSGYPPDIPDEVTCVIYEYSGNMTCTWNAGKLTYIDTKYVVHVKSLETEEEQQYLTSSYINISTDSLQGGKKYLVWVQAANALGMEESKQLQIHLDDIVIPSAAVISRAETINATVPKTIIYWDSQTTIEKVSCEMRYKATTNQTWNVKEFDTNFTYVQQSEFYLEPNIKYVFQVRCQETGKRYWQPWSSLFFHKTPETVPQVTSKAFQHDTWNSGLTVASISTGHLTSDNRGDIG
notes: extracellular domain; also called hIL-23R; soluble IL-23R
B3: recombinant human IL-23 (hrIL-23), produced at Centocor (ligand)
chain 1: RAVPGGSSPAWTQCQQLSQKLCTLAWSAHPLVGHMDLREEGDEETTNDVPHIQCGDGCDPQGLRDNSQFCLQRIHQGLIFYEKLLGSDIFTGEPSLLPDSPVAQLHASLLGLSQLLQPEGHHWETQQIPSLSPSQPWQRLLLRFKILRSLQAFVAVAARVFAHGAATLSP
chain 2: T3 sequence (looked up) 2
notes: p19-p40 heterodimer; also called rhIL-23; huIL-23
B4: MOR04190 mAb (antibody, human IgG1, V domains shown)
VH: QVELVQSGAEVKKPGSSVKVSCKASGGTFSSNYISWVRQAPGQGLEWMGGIIPIFGHANYAQKFQGRVTITADESTSTAYMELSSLRSEDTAVYYCARSKKGMYGGWTYPLMMFDLWGQGTLVTVSS
VL: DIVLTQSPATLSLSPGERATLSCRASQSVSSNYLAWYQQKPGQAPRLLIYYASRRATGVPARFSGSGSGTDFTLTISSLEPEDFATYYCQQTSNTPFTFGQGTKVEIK
notes: human IgG1/kappa; also called 4190 (κ); MOR0190
B5: MOR05049 mAb (antibody, human IgG1, V domains shown)
VH: QVELVESGGGLVQPGGSLRLSCAASGFTFSSFGMSWVRQAPGKGLEWVSGIEHKYLSYTTHYAASVKGRFTISRDNSKNTLYLQMNSLRAEDTAVYYCARYWGTPYLMQFDNWGQGTLVTVSS
VL: DIALTQPASVSGSPGQSITISCTGTSSDVGGYNSVSWYQQHPGKAPKLMIYSVSSRPSGVSNRFSGSKSGNTASLTISGLQAEDEADYYCSSYDTNKPLVVFGGGTKLTVL
notes: human IgG1/lambda

Tests used:
[1] = target: T1, mIL-12; experiment: cytokine capture ELISA: mAbs coated onto plates, cytokines at 100 ng/ml; murine p40 containing cytokine detected with C17.8-biotin
[2] = target: T2, murine IL-23; experiment: as above
[3] = target: T3, recombinant human IL-12 (hrIL-12), …; experiment: cytokine capture ELISA: mAbs coated onto plates, cytokines at 100 ng/ml, binding detected with mAb12B-biotin
Experimental: (§1) Purified mouse anti-hIL-23 mAbs were evaluated in cytokine capture ELISA to determine their antigen subunit specificity. Briefly, IL-23 mAbs were coated onto plates and incubated with 100 ng/ml) hrIL-23, hrIL-12, and hrp40, respectively. Following incubation with biotinylated anti-p40 mAb, the binding was detected using HRP—conjugated streptavidin. An anti-p40 mAb and an anti-IL-12 mAb (20C2, Catalog No. 555065, BD Pharmingen, San Diego, Calif.) with known specificity were used as controls.

[4] = target: T4, p40 subunit of hrIL-12 (hrp40 monomer); experiment: as above
Experimental: as §1

[5] = target: T5, murine p40; experiment: cytokine capture ELISA: mAbs coated onto plates, cytokines at 100 ng/ml; murine p40 containing cytokine detected with C17.8-biotin; target printed as m(p40)2
[6] = target: B3; experiment: cell-based or functional assay
[7] = target: B3; experiment: biotinylated hrIL-23 on immobilized IL-23R-Fc
Experimental: (§2) In this experiment, a human IL-23R-Fc fusion protein was immobilized on a plate. This fusion protein consists of the extracellular domain of human IL-23 receptor fused to a human Fc segment. Biotinylated hrIL-23 was added to the plate either alone or after preincubation with individual IL-23p19 mAbs. Soluble IL-23R (IL-23R-Fc) was used as a positive control. IL-23 binding was detected with HRP-conjugated streptavidin. […] There was no inhibition by B21M, a mAb with unrelated specificity. […] IL-23 binding was inhibited by the p40 neutralizing mAb CNTO 1275 (same as mAb 12A), as expected. […] CNTO 1275 again served as a positive control.

[8] = target: B3; experiment: blocking ELISA (BRBA): biotinylated IL-23 with titrated soluble IL-23R-Fc, binding to plate-immobilized IL-23R-Fc
Experimental: as §2

[9] = target: B3; experiment: hrIL-23/hIL-23R competition assay, soluble receptor as reference
[10] = target: T6, IL-23R and IL-12Rβ1 naturally expressed on TALL-104 cells (human, UniProt Q5VWK5 24-629; P42701 24-662); experiment: flow cytometry on TALL-104 cells
T6 construct: whole, on cells

[11] = target: B3; experiment: blocking ELISA: 20 ng/ml IL-23-bt. with titrated mAb, binding to plate-immobilized IL-23R-Fc is blocked

| binding result [1] | binding result [2] | binding result [3] | binding result [4] | binding result [5] | IC50, inhibition of IL-17 production [6] | fold weaker potency than soluble IL-23R-Fc [7] | Binder | further results |
| --- | --- | --- | --- | --- | --- | --- | --- | --- |
| no binding (tested: 100 ng/ml) | no binding (tested: 100 ng/ml) | no binding (tested: 100 ng/ml) | no binding (tested: 100 ng/ml) | no binding (tested: 100 ng/ml) | 1.4 µg/mL | ~3 fold | B1 | – |
| – | – | – | – | – | – | – | B2 | IC50 (read off the curve) [8]: ~0.05 µg/mL; IC50 [9]: 1.8 nM |
| – | – | – | – | – | – | – | B3 | binding result [10]: binds |
| no binding (tested: 100 ng/ml) | no binding (tested: 100 ng/ml) | no binding (tested: 100 ng/ml) | no binding (tested: 100 ng/ml) | no binding (tested: 100 ng/ml) | 0.218 µg/mL | ~3 fold | B4 | – |
| – | – | – | – | – | 0.0162 µg/mL | – | B5 | IC50 (read off the curve) [11]: ~0.1 µg/mL |
